B1: BGAh9239 (antibody, human IgG1, kappa, V domains shown)
VH: QVQLVQSGAEVKKPGSSVKVSCKASGYTFSIYWLNWVRQAPGQGLEWMGQIYPENADTNYSGKFKGRVTITADKSTSTAYMELSSLRSEDTAVYFCARGGFDYWGQGTLVTVSS
VL: DIQMTQSPSSLSASVGDRVTITCRASENIYSNLAWYQQKPGKAPKLLIYTATNLAEGVPSRFSGSGSGTDFTLTISSLQPEDFATYYCQHFYGILYTFGQGTRLEIKR
notes: also called humanized antibody developed from BGAm1823
B2: BGAm1823 (antibody, V domains shown)
VH: EVQLQQSGAELVKPGASVKISCKASGYAFSIYWMNWVKQRPGKGLEWIGQIYPENGDTNYNGKFKGKATLTADKSSSTAYMHLSSLTSEDSAVYFCARGGFDYWGQGTTLTVSS
VL: NIVMTQSPASLSASVGETVTITCRASENIYSNLAWYQQKQGKSPQLLVYTATNLADGVPSRFSGSGSGTQFSLKINSLQPEDFGSYYCQHFYGILYTFGSGTRLEIK
notes: assays detect or capture it with anti-human IgG; also called murine parental antibody of BGAh9239
B3: BGAh9179 (antibody, human IgG1, kappa, V domains shown)
VH: QVQLVQSGAEVKKPGASVKVSCKASGYTITDTYIHWVRQAPGQGLEWMGRIDPAEGNTMFASEFQGRVTMTADTSTSTVYMELSSLRSEDTAVYYCARSKIHYDYDEGFAYWGQGTLVTVSS
VL: DIVLTQSPDSLAVSLGERATINCRASESVDDYGYSFLHWYQQKPGQPPKLLIYRASNLESGVPDRFSGSGSGTDFTLTISSLQAEDVAVYYCQQSNQNPRTFGGGTKVEIKR
notes: also called BGA9179; humanized antibody developed from BGAm1371
B4: BGAm1371 (antibody, V domains shown)
VH: QVQLKQSGAELVKPGASVKLSCTASGFNIKDTYIHWVKQRPEQGLEWIGRIDPANGNTMFASEFQGKATITAYTSSNTAYMQLSSLTSGDTAVYYCARSKIHYDYDEGFAYWGQGTLVTVSS
VL: NIVLTQSPPSLAVSLGQRATVSCRASESVDDYGYSFLHWYQQKPGQPPKLLIYRASNLESGIPARFSGSGSRTDFTLTINPVETDDVATYYCQQSNQNPRTFGGGTKLEIK
notes: assays detect or capture it with anti-human IgG; also called parental mouse clone; murine parental antibody of BGAh9179
B5: BGA1421 (antibody, human IgG1, kappa, V domains shown)
VH: QVQLVQSGAEVKKPGSSVKVSCKASGYIFTTYNVHWVRQAPGQGLEWIGSIYPDNGDTSYNQNFKGRATITADKSTSTAYMELSSLRSEDTAVYYCARGDFAYWGQGTLVTVSS
VL: DIQMTQSPSSLSASVGDRVTITCKASQGVSNDVAWYQQKPGKAPKLLIYSASYRYTGVPSRFSGSGSGTDFTFTISSLQPEDIATYYCQQHSTTPYTFGQGTKLEIKR
notes: also called bemarituzumab; comparator antibody alone (un-conjugated)
B6: BGA2354 (antibody, human IgG1, lambda, V domains shown)
VH: EVQLLESGGGLVQPGGSLRLSCAASGFTFRTSGMHWVRQAPGKGLEWVAVISYDGSNKYYADSVKGRFTISRDNSKNTLYLQMNSLRAEDTAVYYCARESPGYDFEYWGQGTLVTVSS
VL: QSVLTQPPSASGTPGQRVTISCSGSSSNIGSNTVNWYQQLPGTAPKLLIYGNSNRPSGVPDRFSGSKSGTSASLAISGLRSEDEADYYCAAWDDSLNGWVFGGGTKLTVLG
notes: also called M047 (Bayer; BAY1895344)

What follows are binders tested against T1, cyno FGFR2b protein (recombinant) (cyno, UniProt A0A2K5TL97 22-380) (assay: ELISA, plate-coated cyno FGFR2b).

Binder	EC50 [nM]	Emax (A450)
B1	0.0442	2.93
B2	0.0551	3
B3	0.0469	2.95
B4	0.0245	3.02

These binders were tested against T2, cyno FGFR2b on cells (cyno, UniProt A0A2K5TL97 22-821) (assay: flow cytometry, cyno FGFR2b OE cells).
T2 sequence (A0A2K5TL97 entry or part of it): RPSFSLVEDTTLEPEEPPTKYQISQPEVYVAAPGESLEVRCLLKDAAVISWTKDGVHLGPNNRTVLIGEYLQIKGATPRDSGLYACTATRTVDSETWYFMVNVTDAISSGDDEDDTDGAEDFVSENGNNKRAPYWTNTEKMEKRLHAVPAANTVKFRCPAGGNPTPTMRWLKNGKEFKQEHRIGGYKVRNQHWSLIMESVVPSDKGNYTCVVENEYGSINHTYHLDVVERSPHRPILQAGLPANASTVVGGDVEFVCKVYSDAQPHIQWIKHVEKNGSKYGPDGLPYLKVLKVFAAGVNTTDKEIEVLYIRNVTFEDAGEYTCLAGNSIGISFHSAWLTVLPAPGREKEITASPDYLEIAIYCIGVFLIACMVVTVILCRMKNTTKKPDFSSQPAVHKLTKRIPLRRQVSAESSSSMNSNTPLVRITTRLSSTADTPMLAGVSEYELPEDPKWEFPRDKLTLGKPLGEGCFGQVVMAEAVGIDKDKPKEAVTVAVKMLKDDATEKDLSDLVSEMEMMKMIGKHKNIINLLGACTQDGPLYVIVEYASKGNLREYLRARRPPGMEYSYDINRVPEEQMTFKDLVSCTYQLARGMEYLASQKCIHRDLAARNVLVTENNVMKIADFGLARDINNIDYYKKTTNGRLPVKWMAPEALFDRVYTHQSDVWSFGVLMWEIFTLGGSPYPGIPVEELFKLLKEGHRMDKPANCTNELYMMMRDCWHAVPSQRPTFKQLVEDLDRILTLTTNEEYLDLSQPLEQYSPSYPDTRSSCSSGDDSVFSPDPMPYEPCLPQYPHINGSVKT

Binder	EC50 [nM]
B1	1.55
B4	5.02
B5	0.49
B6	0.34

These binders were tested against T1, cyno FGFR2b protein (recombinant) (assay: SPR, antibody captured by anti-human Fc, cyno FGFR2b).

Binder	Kd [nM]	koff [s⁻¹]	kon [M⁻¹ s⁻¹]
B1	34	0.00272	79900
B2	24.6	0.0018	73500
B3	20.6	0.00172	83700
B4	15.7	0.00125	79700

The binders below were run against T2, cyno FGFR2b on cells (assay: flow cytometry, Expi293 cells overexpressing cyno FGFR2b).

Binder	EC50 [nM]	Emax (MFI)
B1	7.93	6.88e+06
B2	6.27	7.36e+06
B3	8.45	6.25e+06
B4	4.73	6.19e+06
